Experiments:
[1] = biological target: HLA-DR on solid tumor cell lines C32, HT-144 (melanoma) and OVCAR-5 (ovarian) (human); experiment: cell-based or functional assay
[2] = biological target: HLA-DR on solid tumor cell lines C32, HT-144 (melanoma) and OVCAR-5 (ovarian) (human, UniProt P01903 26-254; P01911 30-266); experiment: cell-based or functional assay

Work on 1D10 (antibody) yielded a specific cell death in C32 and HT-144 cells, 24 hour assay, 10 µg/ml [1] of 5 to 15%.

“L227 (anti-HLA-DR β, ATCC HB-96) (antibody)” gave a specific cell death in C32 and HT-144 cells, 24 hour assay, 10 µg/ml [1] of 40%.

B1: K8-355 (antibody, mouse IgG1, V domains shown)
VH: QIQLVQSGPELKKPGETVKISCKASKYTFTNYGMNWVKQAPGKVLRWMGWINTYTGEPTYADDFKGRFAFSLETSASTAYLQINNLKNEDMATYFCATTTLITYYFDYWGQGTTLTVSS
VL: DIQMTQTTSSLSASLGDRVTISCRSSQDISKYLNWYQQKPDGTVKLLIYYTSRLHSGVPSRFSGSGSGTDYSLTISNLEQEDIATYFCQQGDTVPWTFGGGTKLEIK
For B1, the “specific cell death in C32 and HT-144 cells, 24 hour assay, 10 µg/ml” value [2] was ~40%.
